Source: article PMC11770808, “Interplay between conformational dynamics and substrate binding regulates enzymatic activity: a single-molecule FRET study” (Chemical Science, 2025)

System: T1, Nc1ncnc2c1ncn2[C@@H]1O[C@H](COP(=O)(O)OP(=O)(O)O)[C@@H](O)[C@H]1O
T1 construct: purified recombinant, details only in ESI
Assay: coupled assay (hexokinase / glucose-6-phosphate dehydrogenase), initial velocities fitted to Michaelis-Menten
Format: biochemical, Escherichia coli
Conditions: backward reaction, 0 M urea, dye-labelled enzyme (A73C/V142C background inferred), 50 mM Tris-HCl pH 8.0, 100 mM KCl, 10 mM MgCl2

Substance: adenylate kinase (AK), wild-type (WT) (Escherichia coli K-12; A73C/V142C)
- Km: 1340(±98) µM
